The record followed here is patent US20130230540A1 (DOMANTIS, published 2013).

Assay [1] concerns the target T1, recombinant human CD28/Fc Chimera (R&D Systems) (human, UniProt P10747 19-152).
T1 construct: Bought reagent (R&D Systems, Abingdon, UK); not shown: Fc portion of the bought chimera
In words: SPR (BIAcore), CM5 chip coated with 12500 RU CD28-Fc; dAb injected at 57.5 µM. An excerpt:
(§1) All 58 clones were expressed and purified and tested on the BIAcore against a CM5 chip coated with 12500 RU (response units) of CD28-Fc. […] The protein concentrations used for BIAcore analysis were: […]

Assay [2] has as its target T1, recombinant human CD28/Fc Chimera (R&D …). Put plainly: SPR (BIAcore), CM5 chip coated with 12500 RU CD28-Fc; dAb injected at 68.1 µM.
Source text: as §1

Assay [3] has the same target. In words: SPR (BIAcore), CM5 chip coated with 12500 RU CD28-Fc; dAb injected at 14.7 µM.
Source text: as §1
For orientation: Surface plasmon resonance follows binding to a sensor surface in real time, without labels.

Assay [4] has the same target. Put plainly: SPR (BIAcore), CM5 chip coated with 12500 RU CD28-Fc; dAb injected at 19.4 µM.
Source text: as §1

Assay [5] shares this target. In words: SPR (BIAcore), CM5 chip coated with 12500 RU of CD28-Fc, purified dAb, concentration not given.
Source text: as §1

The target is the same in assay [6]. Put plainly: SPR (BIAcore), CM5 chip coated with 12500 RU CD28-Fc; dAb injected at 16.6 µM.
Source text: as §1

Assay [7] shares this target. Put plainly: SPR (BIAcore), CM5 chip coated with 12500 RU CD28-Fc; dAb injected at 42.3 µM.
Source text: as §1

The target is the same in assay [8]. In words: SPR (BIAcore), CM5 chip coated with 12500 RU CD28-Fc; dAb injected at 13.8 µM.
Source text: as §1

B1: DOM21-20 (other)
VH: EVQLLESGGGLVQPGGSLRLSCAASGFTFPAYSMIWVRQAPGKGLEWVSTISPLGYSTYYADSVKGRFTISRDNSKNTLYLQMNSLRAEDTAVYYCAEQTAYLNRATEHFDYWGQGTLVTVSS
notes: Human VH antibody single variable domain (dAb), expressed from pDOM5 and purified
In the case of B1, the binding result in assay [1] was “binds”.

B2: DOM21-6 (other)
VH: EVQLLESGGGLVQPGGSLRLSCAASGFTFENYGMAWVRQAPGKGLEWVSNIGRAGSVTYYADSVKGRFTISRDNSKNTLYLQMNSLRAEDTAVYYCAKVQSWRTFDYWGQGTLVTVSS
notes: as for B1
Turning to B2, the binding result in assay [2] was “binds”.

B3: DOM21-27 (other)
VL: DIQMTQSPSSLSASVGDRVTITCRASQSIGTGLRWYQQKPGKAPMLLIYRASILQSGVPSRFSGSGSGTDFTLTISSLQPEDFATYYCQQTTLQPFTFSQGTKVEIKR
notes: Human Vkappa antibody single variable domain (dAb), expressed from pDOM5 and purified
For the molecule B3, the binding result in assay [3] is recorded as “binds”.

B4: DOM21-22 (other)
VH: EVQLLESGGGLVQPGGSLRLSCAASGFTFELYQMGWVRQAPGKGLEWVSTIMPSGNLTYYADSVKGRFTISRDNSKNTLYLQMNSLRAEDTAVYYCAKMWSLNLGFHAAFDYWGQGTLVTVSS
notes: as for B1
Regarding B4, the binding result in assay [4] was “binds”.

B5: DOM21-44 (other)
VH: EVQLLESGGGLVQPGGSLRLSCAASGFTFARYTMVWVRQAPGKGLEWVSAIHFDGRTTYYADSVKGRFTISRDNSKNTLYLQMNSLRAEDTAVYYCAKNEWASLKHFDYWGQGTLVTVSS
notes: as for B1
With B5, the binding result in assay [5] is given as “binds”.

B6: DOM21-28 (other)
VL: DIQMTQSPSSLSASVGDRVTITCRASQSISHSLVWYQQKPGKAPKLLIYWASLLQSGVPSRFSGSGSGTDFTLTISSLQPEDFATYYCQQGMTTPFTFGQGTKVEIKR
notes: as for B3
For the molecule B6, the binding result in assay [6] is “binds”.

B7: DOM21-38 (other)
VH: EVQLLESGGGLVQPGGSLRLSCAASGFTFILYDMQWVRQAPGKGLEWVSRISANGHDTYYADSVKGRFTISRDNSKNTLYLQMNSLRAEDTAVYYCAKGPHYLFDYWGQGTLVTVSS
notes: as for B1
As for B7, the binding result in assay [5] was “binds”.

B8: DOM21-4 (other)
VH: EVQLLESGGGLVQPGGSLRLSCAASGFTFSRYHMAWVRQAPGKGLEWVSVIDSLGLQTYYADSVKGRFTISRDNSKNTLYLQMNSLRAEDTAVYYCAEYGGAFDYWGQGTLVTVSS
notes: Human VH antibody single variable domain (dAb), DP47/JH4b framework, expressed from pDOM5 and purified
Take B8: the binding result in assay [7] is given as “binds”.

B9: DOM21-18 (other)
VL: DIQMTQSPSSLSASVGDRVTITCRASQYIGTSLNWYQQKPGKAPKLLTYQASLLQSGVPSRFSGSGSGTDFTLTISSLQPEDFATYYCQQLALRPMTFGQGTKVEIKR
notes: Human Vkappa antibody single variable domain (dAb), DPK9/Jk1 framework, expressed from pDOM5 and purified
Consider B9, for which, in assay [8], the binding result is on record as “binds”.
